In the supplement of paper PMC10567573:

B1: KRT33B (parent)
chain: YQSYFKTIEELQQKILCSKSENAR

Variants of: B1
Assay: protein stability index of a GFP-peptide fusion (GPS, HEK-293T) (PSI 1-6); higher = more stable
Details: c terminus: a fixed tail appended
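Also: lentivirally expressed fusions sorted by FACS into six bins by GFP to DsRed ratio, PSI derived from sequencing read proportions per bin multiplied by bin number.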

Variant	protein stability index
YQSYFKTIEELQQKIFCSKSENAR [L16F]	1.93
YQSYFKTIEELQQKIDCSKSENAR [L16D]	1.87
YQSYFKTIEELQQKITCSKSENAR [L16T]	1.55
YQSYFKTIEELQQKIRCSKSENAR [L16R]	2.49
YQSYFKTIEELQQKIYCSKSENAR [L16Y]	1.41
YQSYFKTIEELQQKIACSKSENAR [L16A]	2.13
YQSYFKTIEELQQKIQCSKSENAR [L16Q]	1.88
YQSYFKTIEELQQKIWCSKSENAR [L16W]	2.1
YQSYFKTIEELQQKIICSKSENAR [L16I]	2.14
YQSYFKTIEELQQKIECSKSENAR [L16E]	1.73
YQSYFKTIEELQQKIGCSKSENAR [L16G]	1.92
YQSYFKTIEELQQKIPCSKSENAR [L16P]	2.12
YQSYFKTIEELQQKIMCSKSENAR [L16M]	1.85
YQSYFKTIEELQQKIKCSKSENAR [L16K]	2.39
YQSYFKTIEELQQKIHCSKSENAR [L16H]	1.96
YQSYFKTIEELQQKIVCSKSENAR [L16V]	2.89
YQSYFKTIEELQQKINCSKSENAR [L16N]	1.84
YQSYFKTIEELQQKICCSKSENAR [L16C]	2.52
YQSYFKTIEELQQKISCSKSENAR [L16S]	2
YQSYFKTIEELQQKILCMKSENAR [S18M]	2.18
YQSYFKTIEELQQKILCVKSENAR [S18V]	1.73
YQSYFKTIEELQQKILCFKSENAR [S18F]	1.68
YQSYFKTIEELQQKILCEKSENAR [S18E]	2.12
YQSYFKTIEELQQKILCCKSENAR [S18C]	2.65

Variant	protein stability index
YQSYFKTIEELQQKILCTKSENAR [S18T]	2
YQSYFKTIEELQQKILCLKSENAR [S18L]	1.79
YQSYFKTIEELQQKILCIKSENAR [S18I]	2.42
YQSYFKTIEELQQKILCYKSENAR [S18Y]	2.21
YQSYFKTIEELQQKILCPKSENAR [S18P]	1.79
YQSYFKTIEELQQKILCQKSENAR [S18Q]	2.26
YQSYFKTIEELQQKILCRKSENAR [S18R]	2.18
YQSYFKTIEELQQKILCDKSENAR [S18D]	1.9
YQSYFKTIEELQQKILCHKSENAR [S18H]	1.84
YQSYFKTIEELQQKILCAKSENAR [S18A]	2.21
YQSYFKTIEELQQKILCNKSENAR [S18N]	1.92
YQSYFKTIEELQQKILCKKSENAR [S18K]	1.86
YQSYFKTIEELQQKILCWKSENAR [S18W]	1.97
YQSYFKTIEELQQKILCGKSENAR [S18G]	2.21
YQSYFKTIEELQQKILCSKSENAE [R24E]	1.88
YQSYFKTIEELQQKILCSKSENAC [R24C]	2.4
YQSYFKTIEELQQKILCSKSENAD [R24D]	1.78
YQSYFKTIEELQQKILCSKSENAF [R24F]	1.47
YQSYFKTIEELQQKILCSKSENAA [R24A]	1.94
YQSYFKTIEELQQKILCSKSENAK [R24K]	1.84
YQSYFKTIEELQQKILCSKSENAG [R24G]	2.55
YQSYFKTIEELQQKILCSKSENAH [R24H]	1.71
YQSYFKTIEELQQKILCSKSENAI [R24I]	1.79
YQSYFKTIEELQQKILCSKSEPAR [N22P]	1.46

Variant	protein stability index
YQSYFKTIEELQQKILCSKSECAR [N22C]	2.3
YQSYFKTIEELQQKILCSKSEHAR [N22H]	2.18
YQSYFKTIEELQQKILCSKSEDAR [N22D]	1.82
YQSYFKTIEELQQKILCSKSEWAR [N22W]	1.9
YQSYFKTIEELQQKILCSKSELAR [N22L]	1.86
YQSYFKTIEELQQKILCSKSERAR [N22R]	1.49
YQSYFKTIEELQQKILCSKSETAR [N22T]	1.39
YQSYFKTIEELQQKILCSKSEKAR [N22K]	1.8
YQSYFKTIEELQQKILCSKSEQAR [N22Q]	2.19
YQSYFKTIEELQQKILCSKSESAR [N22S]	2.5
YQSYFKTIEELQQKILCSKSEFAR [N22F]	1.67
YQSYFKTIEELQQKILCSKSEIAR [N22I]	1.71
YQSYFKTIEELQQKILCSKSEYAR [N22Y]	1.86
YQSYFKTIEELQQKILCSKSEEAR [N22E]	1.89
YQSYFKTIEELQQKILCSKSEAAR [N22A]	2.31
YQSYFKTIEELQQKILCSKSEMAR [N22M]	1.93
YQSYFKTIEELQQKILCSKSEGAR [N22G]	1.99
YQSYFKTIEELQQKILCSKSEVAR [N22V]	1.89
YQSYFKTIEELQQKFLCSKSENAR [I15F]	2
YQSYFKTIEELQQKSLCSKSENAR [I15S]	1.93
YQSYFKTIEELQQKNLCSKSENAR [I15N]	1.85
YQSYFKTIEELQQKELCSKSENAR [I15E]	1.81
YQSYFKTIEELQQKGLCSKSENAR [I15G]	2.25
YQSYFKTIEELQQKPLCSKSENAR [I15P]	2.3

Variant	protein stability index
YQSYFKTIEELQQKHLCSKSENAR [I15H]	2.52
YQSYFKTIEELQQKMLCSKSENAR [I15M]	2.07
YQSYFKTIEELQQKWLCSKSENAR [I15W]	1.71
YQSYFKTIEELQQKCLCSKSENAR [I15C]	3.74
YQSYFKTIEELQQKVLCSKSENAR [I15V]	1.7
YQSYFKTIEELQQKRLCSKSENAR [I15R]	1.93
YQSYFKTIEELQQKKLCSKSENAR [I15K]	1.64
YQSYFKTIEELQQKALCSKSENAR [I15A]	2.14
YQSYFKTIEELQQKTLCSKSENAR [I15T]	1.81
YQSYFKTIEELQQKQLCSKSENAR [I15Q]	2.09
YQSYFKTIEELQQKDLCSKSENAR [I15D]	2.05
YQSYFKTIEELQQKLLCSKSENAR [I15L]	1.67
YQSYFKTIEELQQKYLCSKSENAR [I15Y]	1.73
YQSYFKTIEELQQKILCSKSENNR [A23N]	2.24
YQSYFKTIEELQQKILCSKSENQR [A23Q]	2.36
YQSYFKTIEELQQKILCSKSENFR [A23F]	1.47
YQSYFKTIEELQQKILCSKSENER [A23E]	2.77
YQSYFKTIEELQQKILCSKSENLR [A23L]	1.73
YQSYFKTIEELQQKILCSKSENVR [A23V]	2.35
YQSYFKTIEELQQKILCSKSENRR [A23R]	2.13
YQSYFKTIEELQQKILCSKSENGR [A23G]	2.03
YQSYFKTIEELQQKILCSKSENPR [A23P]	1.68
YQSYFKTIEELQQKILCSKSENKR [A23K]	1.76
YQSYFKTIEELQQKILCSKSENHR [A23H]	1.68

Variant	protein stability index
YQSYFKTIEELQQKILCSKSENCR [A23C]	1.86
YQSYFKTIEELQQKILCSKSENTR [A23T]	2.27
YQSYFKTIEELQQKILCSKSENIR [A23I]	1.9
YQSYFKTIEELQQKILCSKSENDR [A23D]	1.62
YQSYFKTIEELQQKILCSKSENWR [A23W]	1.57
YQSYFKTIEELQQKILCSKSENMR [A23M]	2.11
YQSYFKTIEELQQKILCSKSENSR [A23S]	2.21
YQSYFKTIEELQQKILCSKSENYR [A23Y]	1.64
YQSYFKTIEELQQKILCSKYENAR [S20Y]	1.95
YQSYFKTIEELQQKILCSKEENAR [S20E]	1.65
YQSYFKTIEELQQKILCSKPENAR [S20P]	1.99
YQSYFKTIEELQQKILCSKDENAR [S20D]	2.32
YQSYFKTIEELQQKILCSKFENAR [S20F]	1.97
YQSYFKTIEELQQKILCSKVENAR [S20V]	2.04
YQSYFKTIEELQQKILCSKIENAR [S20I]	1.92
YQSYFKTIEELQQKILCSKNENAR [S20N]	2.13
YQSYFKTIEELQQKILCSKWENAR [S20W]	1.56
YQSYFKTIEELQQKILCSKRENAR [S20R]	1.89
YQSYFKTIEELQQKILCSKMENAR [S20M]	1.63
YQSYFKTIEELQQKILCSKGENAR [S20G]	1.38
YQSYFKTIEELQQKILCSKTENAR [S20T]	1.87
YQSYFKTIEELQQKILCSKLENAR [S20L]	1.73
YQSYFKTIEELQQKILCSKKENAR [S20K]	2.05
YQSYFKTIEELQQKILCSKHENAR [S20H]	1.82

Variant	protein stability index
YQSYFKTIEELQQKILCSKAENAR [S20A]	2.02
YQSYFKTIEELQQKILCSKQENAR [S20Q]	1.81
YQSYFKTIEELQQKILCSKCENAR [S20C]	1.95
YQSYFKTIEELQQKILCSRSENAR [K19R]	2.06
YQSYFKTIEELQQKILCSLSENAR [K19L]	1.54
YQSYFKTIEELQQKILCSISENAR [K19I]	1.71
YQSYFKTIEELQQKILCSHSENAR [K19H]	1.76
YQSYFKTIEELQQKILCSMSENAR [K19M]	1.69
YQSYFKTIEELQQKILCSFSENAR [K19F]	1.7
YQSYFKTIEELQQKILCSQSENAR [K19Q]	2.08
YQSYFKTIEELQQKILCSDSENAR [K19D]	1.72
YQSYFKTIEELQQKILCSWSENAR [K19W]	1.57
YQSYFKTIEELQQKILCSESENAR [K19E]	2.56
YQSYFKTIEELQQKILCSPSENAR [K19P]	2.14
YQSYFKTIEELQQKILCSGSENAR [K19G]	2.08
YQSYFKTIEELQQKILCSASENAR [K19A]	1.72
YQSYFKTIEELQQKILCSYSENAR [K19Y]	1.84
YQSYFKTIEELQQKILCSCSENAR [K19C]	1.84
YQSYFKTIEELQQKILCSSSENAR [K19S]	1.78
YQSYFKTIEELQQKILCSNSENAR [K19N]	1.86
YQSYFKTIEELQQKILCSTSENAR [K19T]	2.3
YQSYFKTIEELQQKILCSVSENAR [K19V]	1.7
YQSYFKTIEELQQTILCSKSENAR [K14T]	1.56
YQSYFKTIEELQQVILCSKSENAR [K14V]	1.65

Variant	protein stability index
YQSYFKTIEELQQPILCSKSENAR [K14P]	1.45
YQSYFKTIEELQQQILCSKSENAR [K14Q]	2.78
YQSYFKTIEELQQRILCSKSENAR [K14R]	2.57
YQSYFKTIEELQQWILCSKSENAR [K14W]	3.51
YQSYFKTIEELQQSILCSKSENAR [K14S]	1.97
YQSYFKTIEELQQYILCSKSENAR [K14Y]	1.61
YQSYFKTIEELQQKILCSKSMNAR [E21M]	2.13
YQSYFKTIEELQQKILCSKSLNAR [E21L]	1.7
YQSYFKTIEELQQKILCSKSPNAR [E21P]	1.8
YQSYFKTIEELQQKILCSKSYNAR [E21Y]	1.75
YQSYFKTIEELQQKILCSKSGNAR [E21G]	1.72
YQSYFKTIEELQQKILCSKSRNAR [E21R]	1.77
YQSYFKTIEELQQKILCSKSNNAR [E21N]	1.79
YQSYFKTIEELQQKILCSKSINAR [E21I]	1.6
YQSYFKTIEELQQKILCSKSCNAR [E21C]	1.79
YQSYFKTIEELQQKILCSKSWNAR [E21W]	1.28
YQSYFKTIEELQQKILCSKSQNAR [E21Q]	2.1
YQSYFKTIEELQQKILCSKSSNAR [E21S]	1.54
YQSYFKTIEELQQKILCSKSDNAR [E21D]	1.77
YQSYFKTIEELQQKILCSKSHNAR [E21H]	1.79
YQSYFKTIEELQQKILCSKSFNAR [E21F]	2.06
YQSYFKTIEELQQKILCSKSKNAR [E21K]	1.79
YQSYFKTIEELQQKILCSKSANAR [E21A]	1.86
YQSYFKTIEELQQKILCSKSVNAR [E21V]	1.65

Variant	protein stability index
YQSYFKTIEELQQKILCSKSTNAR [E21T]	1.77
YQSYFKTIEELQQKILWSKSENAR [C17W]	1.53
YQSYFKTIEELQQKILGSKSENAR [C17G]	1.87
YQSYFKTIEELQQKILLSKSENAR [C17L]	2.87
YQSYFKTIEELQQKILHSKSENAR [C17H]	2.31
YQSYFKTIEELQQKILQSKSENAR [C17Q]	1.89
YQSYFKTIEELQQKILPSKSENAR [C17P]	1.77
YQSYFKTIEELQQKILDSKSENAR [C17D]	1.65
YQSYFKTIEELQQKILRSKSENAR [C17R]	2.14
YQSYFKTIEELQQKILYSKSENAR [C17Y]	1.61
YQSYFKTIEELQQKILTSKSENAR [C17T]	2.19
YQSYFKTIEELQQKILESKSENAR [C17E]	2.49
YQSYFKTIEELQQKILASKSENAR [C17A]	2.16
YQSYFKTIEELQQKILVSKSENAR [C17V]	1.72
YQSYFKTIEELQQKILFSKSENAR [C17F]	1.39
YQSYFKTIEELQQKILMSKSENAR [C17M]	2.54
YQSYFKTIEELQQKILKSKSENAR [C17K]	2.19
YQSYFKTIEELQQKILISKSENAR [C17I]	2.07
YQSYFKTIEELQQKILSSKSENAR [C17S]	1.7
YQSYFKTIEELQQKILNSKSENAR [C17N]	1.95
